Results from patent US20140193401A1.

Tests used:
[1] = biological target: PTx-S1-220 R79A (Bordetella pertussis) (UniProt P04977)
[2] = biological target: PTx-S1-220 R79A (Bordetella pertussis) (UniProt P04977); experiment: ELISA, hu1B7 as primary antibody; EC50 as percent of the PTx reference
[3] = biological target: PTx-S1E (residues 1-220, D34E, S162P, I198M) (Bordetella pertussis) (UniProt Q7WDU8); experiment: SPR (BIAcore 3000), mAb 1B7 immobilised on CM5 chip, toxin injected
[4] = biological target: pertussis toxin holotoxin (Bordetella pertussis) (UniProt P04977); experiment: competition ELISA (Friguet), 5 nM antibody with PT in solution, coated PT
[5] = biological target: pertussis toxin holotoxin (Bordetella pertussis) (UniProt P04977); experiment: cell-based or functional assay

Substance: hu1B7 scAb (humanized 1B7 single-chain Fv with C-terminal human kappa constant domain) (scFv)
- % EC50 PTx [1]: 1%
- % EC50 PTX [2]: 1%

Substance: murine monoclonal antibody 1B7
- koff [3]: 0.0018 s⁻¹

Substance: murine monoclonal antibody 11E6
- Kd [4]: 20 nM
- In Vitro Neutralization (nM), minimum protective concentration, CHO clustering assay [5]: 5.2 nM
